# Values of other authors as cited in publication PMC5132258.
# Molecular target: His89 (UniProt position 89, VLYCVHQRIDV)
# Conditions: not stated (folded wild-type matrix protein implied; myristoylation state not given)
substance,measurement,value
"HIV-1 matrix protein p17 (MA), N-terminal domain of the Gag polyprotein (Human immunodeficiency virus type 1)",pKa,6.5
